The values that follow come from patent US20100203559A1.

Broadly, the Kd is the free concentration of one partner at which half of the binding sites on the other are occupied at equilibrium, for simple one-to-one binding. Read a low Kd as tighter binding. The koff is the first-order rate constant of dissociation. Higher therefore signals fast dissociation. As usually defined, the kon is the rate constant with which the complex forms.

For assay [1], the target named is SNAP-25134-197 peptide (human). As to the kind of experiment: SPR (BIAcore 3000), peptide amine-coupled to CM5, antibody as analyte, 1:1 fit. A general note: Surface plasmon resonance follows binding to a sensor surface in real time, without labels.
In assay [2] the target is SNAP-25134-206 peptide (human). The description is as above.
The target of assay [3] is GAPDH (SiMa cell lysate) (human (SiMa cells)) (UniProt P04406). As to the kind of experiment: ECL sandwich ELISA, SiMa lysate; capture G8795, detection 2275-PC-1; result of the pair.
The target is the same in assay [4]. As to the kind of experiment: ECL sandwich ELISA, SiMa lysate; capture MAB374, detection G9545; result of the pair. A general note: In an ELISA, binding on a coated surface is turned into a signal by an enzyme label.
Assay [5] has the same target. As to the kind of experiment: ECL sandwich ELISA, SiMa lysate; capture MAB374, detection 2275-PC-1; result of the pair.
Assay [6] has the same target. As to the kind of experiment: ECL sandwich ELISA, SiMa lysate; capture MAB374, detection G8795; result of the pair.
In assay [7] the target is syntaxin 1 (SiMa cell lysate) (human (SiMa cells)) (UniProt Q16623). The assay is described as follows: ECL sandwich ELISA, SiMa lysate; capture S0664, detection S1172-2; result of the pair.
Assay [8] shares this target. The assay is described as follows: ECL sandwich ELISA, SiMa lysate; capture S0664, detection S1172-1; result of the pair.
Assay [9] deals with syntaxin 2 (SiMa cell lysate) (human (SiMa cells)) (UniProt P32856). The assay is described as follows: ECL sandwich ELISA, SiMa lysate; capture MAB2936, detection AB5596; result of the pair.
The target is the same in assay [10]. As to the kind of experiment: ECL sandwich ELISA, SiMa lysate; capture MAB2936, detection S5687; result of the pair.

In assay [1], “MC-6050 α-SNAP-25 mouse monoclonal antibody (Research & Diagnostic Antibodies)” had a Kd of 0.497 nM, an off-rate constant (koff) of 0.000882 s⁻¹ and a kon of 1.78e+06 M⁻¹ s⁻¹. For the same substance, in assay [2], the equilibrium dissociation constant (Kd) was 19800 nM, the off-rate (koff) was 0.00607 s⁻¹ and the association rate constant (kon) is 306 M⁻¹ s⁻¹.

In assay [1], “MC-6053 α-SNAP-25 mouse monoclonal antibody (Research & Diagnostic Antibodies)” yielded a Kd of 0.508 nM, a koff of 0.00118 s⁻¹ and an association rate constant (kon) of 2.32e+06 M⁻¹ s⁻¹. For the same substance, in assay [2], the Kd is 240 nM and the off-rate (koff) was 2.56e-05 s⁻¹.

Regarding “α-GAPDH mouse monoclonal antibody G8795 (Sigma)”, in assay [3], the Signal/Noise Ratio (lysate/buffer) stood at 2.74.

With “α-GAPDH mouse monoclonal antibody MAB374 (Chemicon)”, the results for the Signal/Noise Ratio (lysate/buffer) in assay [4], in assay [5] and in assay [6] were more than 100, 20 and 0.89, respectively.

On to “α-Syntaxin 1A-HPC mouse monoclonal antibody S0664 (Sigma)”, for which the Signal/Noise Ratio (lysate/buffer) in [7] was determined as 1.21; in assay [8], 4.23.

On to “α-human syntaxin 2 mouse monoclonal antibody MAB2936 (R & D Systems)”, for which the Signal/Noise Ratio (lysate/buffer) in assay [9] stood at 1.2; in assay [10] it was 1.07.
